Assays:
Experiment in all cases: cell-based or functional assay
[1] = biological target: HIV-1 Env of pseudovirus A07412M1.vrc12 (HIV-1)
[2] = biological target: HIV-1 Env of pseudovirus CNE21 (HIV-1)
[3] = biological target: HIV-1 Env of pseudovirus 6545.v4.c1 (HIV-1)
[4] = biological target: HIV-1 Env of pseudovirus 231965.c01 (HIV-1)
[5] = biological target: HIV-1 Env of pseudovirus ZM197M.PB7 (HIV-1)
[6] = biological target: HIV-1 Env of pseudovirus Ce703010054_2A2 (HIV-1)
[7] = biological target: HIV-1 Env of pseudovirus X1254_c3 (HIV-1)
[8] = biological target: HIV-1 Env of pseudovirus 9004SS_A3_4 (HIV-1)
[9] = biological target: HIV-1 Env of pseudovirus CAP210.2.00.E8 (HIV-1)
[10] = biological target: HIV-1 Env of pseudovirus CAAN5342.A2 (HIV-1)
[11] = biological target: HIV-1 Env of pseudovirus 620345.c01 (HIV-1)
[12] = biological target: HIV-1 Env of pseudovirus Du156.12 (HIV-1)
[13] = biological target: HIV-1 Env of pseudovirus Q23.17 (HIV-1)
[14] = biological target: HIV-1 Env of pseudovirus 6535.3 (HIV-1)
[15] = biological target: HIV-1 Env of pseudovirus 62357_14_D3_4589 (HIV-1)
[16] = biological target: HIV-1 Env of pseudovirus Ce1176_A3 (HIV-1)
[17] = biological target: HIV-1 Env of pseudovirus 6952.v1.c20 (HIV-1)
[18] = biological target: HIV-1 Env of pseudovirus SC05_8C11_2344 (HIV-1)
[19] = biological target: HIV-1 Env of pseudovirus SC422661.8 (HIV-1)
[20] = biological target: HIV-1 Env of pseudovirus ZM247v1(Rev-) (HIV-1)
[21] = biological target: HIV-1 Env of pseudovirus CNE20 (HIV-1)
[22] = biological target: HIV-1 Env of pseudovirus HIV-0013095-2.11 (HIV-1)
[23] = biological target: HIV-1 Env of pseudovirus 1006_11_C3_1601 (HIV-1)
[24] = biological target: HIV-1 Env of pseudovirus HIV-001428-2.42 (HIV-1)
[25] = biological target: HIV-1 Env of pseudovirus Q259.d2.17 (HIV-1)
[26] = biological target: HIV-1 Env of pseudovirus T278-50 (HIV-1)
[27] = biological target: HIV-1 Env of pseudovirus CNE19 (HIV-1)
[28] = biological target: HIV-1 Env of pseudovirus THRO4156.18 (HIV-1)
[29] = biological target: HIV-1 Env of pseudovirus 3016.v5.c45 (HIV-1)
[30] = biological target: HIV-1 Env of pseudovirus CNE5 (HIV-1)
[31] = biological target: HIV-1 Env of pseudovirus ZM135M.PL10a (HIV-1)
[32] = biological target: HIV-1 Env of pseudovirus QH0692.42 (HIV-1)
[33] = biological target: HIV-1 Env of pseudovirus REJO4541.67 (HIV-1)
[34] = biological target: HIV-1 Env of pseudovirus ZM233M.PB6 (HIV-1)
[35] = biological target: HIV-1 Env of pseudovirus MS208.A1 (HIV-1)
[36] = biological target: HIV-1 Env of pseudovirus WEAU_d15_410_787 (HIV-1)
[37] = biological target: HIV-1 Env of pseudovirus 249M B10 (HIV-1)

Q: What does the source list for PGT151 (antibody)?
A: IC50 (Titer in TZM.bl cells) [1]: 0.246 µg/mL; IC80 (Titer in TZM.bl cells) [1]: > 50 µg/mL; neutralization IC50 [2]: 0.004 µg/mL; neutralization IC80 [2]: 0.012 µg/mL; IC50 (Titer in TZM.bl cells) [3]: 0.004 µg/mL; IC80 (Titer in TZM.bl cells) [3]: 0.026 µg/mL; IC50 (Titer in TZM.bl cells) [4]: < 0.001 µg/mL; IC80 (Titer in TZM.bl cells) [4]: 0.012 µg/mL; neutralization IC50 [5]: 0.003 µg/mL; neutralization IC80 [5]: 0.033 µg/mL; neutralization IC50 [6]: 0.013 µg/mL; neutralization IC80 [6]: 0.075 µg/mL; IC50 (Titer in TZM.bl cells) [7]: 0.309 µg/mL; IC80 (Titer in TZM.bl cells) [7]: > 50 µg/mL; neutralization IC50 [8]: 0.003 µg/mL; neutralization IC80 [8]: 0.015 µg/mL; neutralization IC50 [9]: 0.01 µg/mL; neutralization IC80 [9]: 0.208 µg/mL; neutralization IC50 [10]: 0.005 µg/mL; neutralization IC80 [10]: 0.038 µg/mL; IC50 (Titer in TZM.bl cells) [11]: > 50 µg/mL; IC80 (Titer in TZM.bl cells) [11]: > 50 µg/mL; neutralization IC50 [12]: 0.005 µg/mL; neutralization IC80 [12]: 0.023 µg/mL; neutralization IC50 [13]: 0.007 µg/mL; neutralization IC80 [13]: 0.045 µg/mL; neutralization IC50 [14]: < 0.001 µg/mL; neutralization IC80 [14]: 0.012 µg/mL; neutralization IC50 [15]: 0.004 µg/mL; neutralization IC80 [15]: 0.023 µg/mL; neutralization IC50 [16]: 0.006 µg/mL; neutralization IC80 [16]: 0.018 µg/mL; IC50 (Titer in TZM.bl cells) [17]: 49.2 µg/mL; IC80 (Titer in TZM.bl cells) [17]: > 50 µg/mL; neutralization IC50 [18]: 0.06 µg/mL; neutralization IC80 [18]: > 50 µg/mL; neutralization IC50 [19]: 0.005 µg/mL; neutralization IC80 [19]: 0.028 µg/mL; neutralization IC50 [20]: 0.009 µg/mL; neutralization IC80 [20]: > 50 µg/mL; neutralization IC50 [21]: > 50 µg/mL; neutralization IC80 [21]: > 50 µg/mL; neutralization IC50 [22]: > 50 µg/mL; neutralization IC80 [22]: > 50 µg/mL; neutralization IC50 [23]: 2.89 µg/mL; neutralization IC80 [23]: > 50 µg/mL; neutralization IC50 [24]: 0.027 µg/mL; neutralization IC80 [24]: > 50 µg/mL; neutralization IC50 [25]: > 50 µg/mL; neutralization IC80 [25]: > 50 µg/mL; IC50 (Titer in TZM.bl cells) [26]: 0.13 µg/mL; IC80 (Titer in TZM.bl cells) [26]: > 50 µg/mL; neutralization IC50 [27]: 0.014 µg/mL; neutralization IC80 [27]: > 50 µg/mL; neutralization IC50 [28]: > 50 µg/mL; neutralization IC80 [28]: > 50 µg/mL; IC50 (Titer in TZM.bl cells) [29]: 0.174 µg/mL; IC80 (Titer in TZM.bl cells) [29]: 40.7 µg/mL; IC50 (Titer in TZM.bl cells) [30]: > 50 µg/mL; IC80 (Titer in TZM.bl cells) [30]: > 50 µg/mL; neutralization IC50 [31]: > 50 µg/mL; neutralization IC80 [31]: > 50 µg/mL; neutralization IC50 [32]: 0.029 µg/mL; neutralization IC80 [32]: 0.522 µg/mL; neutralization IC50 [33]: 0.018 µg/mL; neutralization IC80 [33]: 0.119 µg/mL; neutralization IC50 [34]: 0.027 µg/mL; neutralization IC80 [34]: 5.16 µg/mL; neutralization IC50 [35]: < 0.001 µg/mL; neutralization IC80 [35]: 0.003 µg/mL; neutralization IC50 [36]: 0.01 µg/mL; neutralization IC80 [36]: > 50 µg/mL; neutralization IC50 [37]: 0.007 µg/mL; neutralization IC80 [37]: 0.023 µg/mL

Q: Which IC50 (Titer in TZM.bl cells) [1] does the source give for PGDM1400 (antibody) here?
A: 0.032 µg/mL

Q: And the IC80 (Titer in TZM.bl cells) [1]?
A: 0.127 µg/mL

Q: What about the neutralization IC50 [2] of the same substance?
A: < 0.001 µg/mL

Q: What about the neutralization IC80 [2] of the same substance?
A: 0.002 µg/mL

Q: And the IC50 (Titer in TZM.bl cells) [3]?
A: 0.003 µg/mL

Q: What about the IC80 (Titer in TZM.bl cells) [3] of the same substance?
A: 0.039 µg/mL

Q: And the IC50 (Titer in TZM.bl cells) [4]?
A: 0.025 µg/mL

Q: And the IC80 (Titer in TZM.bl cells) [4]?
A: 1.28 µg/mL

Q: What about the neutralization IC50 [5] of the same substance?
A: 0.063 µg/mL

Q: What about the neutralization IC80 [5] of the same substance?
A: 0.285 µg/mL

Q: And the neutralization IC50 [6]?
A: 0.015 µg/mL

Q: What about the neutralization IC80 [6] of the same substance?
A: 0.26 µg/mL

Q: What about the IC50 (Titer in TZM.bl cells) [7] of the same substance?
A: > 50 µg/mL

Q: What about the IC80 (Titer in TZM.bl cells) [7] of the same substance?
A: > 50 µg/mL

Q: And the neutralization IC50 [8]?
A: < 0.001 µg/mL

Q: And the neutralization IC80 [8]?
A: 0.002 µg/mL

Q: And the neutralization IC50 [9]?
A: 0.034 µg/mL

Q: And the neutralization IC80 [9]?
A: 0.514 µg/mL

Q: What about the neutralization IC50 [10] of the same substance?
A: > 50 µg/mL

Q: What about the neutralization IC80 [10] of the same substance?
A: > 50 µg/mL

Q: What about the IC50 (Titer in TZM.bl cells) [11] of the same substance?
A: 0.009 µg/mL

Q: What about the IC80 (Titer in TZM.bl cells) [11] of the same substance?
A: 40.3 µg/mL

Q: What about the neutralization IC50 [12] of the same substance?
A: 0.002 µg/mL

Q: What about the neutralization IC80 [12] of the same substance?
A: 0.008 µg/mL

Q: And the neutralization IC50 [13]?
A: < 0.001 µg/mL

Q: And the neutralization IC80 [13]?
A: 0.003 µg/mL

Q: And the neutralization IC50 [14]?
A: > 50 µg/mL

Q: What about the neutralization IC80 [14] of the same substance?
A: > 50 µg/mL

Q: And the neutralization IC50 [15]?
A: > 50 µg/mL

Q: And the neutralization IC80 [15]?
A: > 50 µg/mL

Q: What about the neutralization IC50 [16] of the same substance?
A: 0.587 µg/mL

Q: And the neutralization IC80 [16]?
A: 11.6 µg/mL

Q: And the IC50 (Titer in TZM.bl cells) [17]?
A: 0.501 µg/mL

Q: What about the IC80 (Titer in TZM.bl cells) [17] of the same substance?
A: 11.8 µg/mL

Q: What about the neutralization IC50 [18] of the same substance?
A: 1.26 µg/mL

Q: And the neutralization IC80 [18]?
A: 3.59 µg/mL

Q: And the neutralization IC50 [19]?
A: 0.436 µg/mL

Q: And the neutralization IC80 [19]?
A: 6.53 µg/mL

Q: What about the neutralization IC50 [20] of the same substance?
A: 0.019 µg/mL

Q: What about the neutralization IC80 [20] of the same substance?
A: 0.051 µg/mL

Q: What about the neutralization IC50 [21] of the same substance?
A: 0.004 µg/mL

Q: And the neutralization IC80 [21]?
A: 0.014 µg/mL

Q: And the neutralization IC50 [22]?
A: 0.003 µg/mL

Q: And the neutralization IC80 [22]?
A: 0.012 µg/mL

Q: And the neutralization IC50 [23]?
A: 4.32 µg/mL

Q: What about the neutralization IC80 [23] of the same substance?
A: > 50 µg/mL

Q: And the neutralization IC50 [24]?
A: < 0.001 µg/mL

Q: And the neutralization IC80 [24]?
A: 0.027 µg/mL

Q: What about the neutralization IC50 [25] of the same substance?
A: 0.166 µg/mL

Q: And the neutralization IC80 [25]?
A: > 50 µg/mL

Q: And the IC50 (Titer in TZM.bl cells) [26]?
A: 0.574 µg/mL

Q: And the IC80 (Titer in TZM.bl cells) [26]?
A: 4.94 µg/mL

Q: And the neutralization IC50 [27]?
A: 0.001 µg/mL

Q: And the neutralization IC80 [27]?
A: 0.007 µg/mL

Q: What about the neutralization IC50 [28] of the same substance?
A: 0.072 µg/mL

Q: And the neutralization IC80 [28]?
A: 0.348 µg/mL

Q: And the IC50 (Titer in TZM.bl cells) [29]?
A: > 50 µg/mL

Q: And the IC80 (Titer in TZM.bl cells) [29]?
A: > 50 µg/mL

Q: What about the IC50 (Titer in TZM.bl cells) [30] of the same substance?
A: < 0.001 µg/mL

Q: What about the IC80 (Titer in TZM.bl cells) [30] of the same substance?
A: < 0.001 µg/mL

Q: And the neutralization IC50 [31]?
A: > 50 µg/mL

Q: What about the neutralization IC80 [31] of the same substance?
A: > 50 µg/mL

Q: What about the neutralization IC50 [32] of the same substance?
A: > 50 µg/mL

Q: And the neutralization IC80 [32]?
A: > 50 µg/mL

Q: What about the neutralization IC50 [33] of the same substance?
A: 0.028 µg/mL

Q: What about the neutralization IC80 [33] of the same substance?
A: 0.992 µg/mL

Q: And the neutralization IC50 [34]?
A: < 0.001 µg/mL

Q: And the neutralization IC80 [34]?
A: 0.001 µg/mL

Q: What about the neutralization IC50 [35] of the same substance?
A: < 0.001 µg/mL

Q: What about the neutralization IC80 [35] of the same substance?
A: 0.139 µg/mL

Q: And the neutralization IC50 [36]?
A: 0.103 µg/mL

Q: And the neutralization IC80 [36]?
A: 1.37 µg/mL

Q: What about the neutralization IC50 [37] of the same substance?
A: 0.039 µg/mL

Q: What about the neutralization IC80 [37] of the same substance?
A: 0.786 µg/mL
